Measured values: US20210270842A1 (DYAX, published 2021)

How the values were obtained:
[1] = target: T1, cleaved high molecular weight kininogen (HMWK) (human, UniProt P01042 19-380; P01042 390-644); assay: sandwich ELISA with coated Fab; value = C, midpoint of the printed 4-P fit; 2-chain HMWK spiked into SBT assay buffer
T1 construct: also called cleaved HMWK; 2-chain HMWK
T1 sequence 1: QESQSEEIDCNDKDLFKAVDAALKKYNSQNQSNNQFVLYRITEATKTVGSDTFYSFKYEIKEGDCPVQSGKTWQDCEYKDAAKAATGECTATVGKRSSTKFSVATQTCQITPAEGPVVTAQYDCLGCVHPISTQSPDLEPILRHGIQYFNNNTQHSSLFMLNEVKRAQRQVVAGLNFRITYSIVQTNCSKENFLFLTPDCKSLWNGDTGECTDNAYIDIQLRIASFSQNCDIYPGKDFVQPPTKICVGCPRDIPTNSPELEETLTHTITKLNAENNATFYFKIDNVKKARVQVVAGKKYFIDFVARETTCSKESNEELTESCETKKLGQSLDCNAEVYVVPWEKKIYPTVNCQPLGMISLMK
T1 sequence 2: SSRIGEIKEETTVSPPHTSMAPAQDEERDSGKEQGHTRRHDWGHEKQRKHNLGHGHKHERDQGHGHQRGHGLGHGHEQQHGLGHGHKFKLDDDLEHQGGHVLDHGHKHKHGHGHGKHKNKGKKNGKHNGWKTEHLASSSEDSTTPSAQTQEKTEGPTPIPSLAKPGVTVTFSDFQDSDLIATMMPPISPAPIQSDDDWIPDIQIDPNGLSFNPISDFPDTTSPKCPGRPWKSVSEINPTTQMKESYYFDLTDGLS
Source text: Purified cleaved HMWK was spiked into SBT assay buffer (open circles), SBT assay buffer and analyzed in the presence of 10% plasma (squares), or HMWK-deficient plasma and analyzed in the presence of 10% plasma (triangles). Purified cleaved HMWK was also spiked into assay buffer and analyzed in the presence of 2.5% plasma (diamonds) or HMWK deficient plasma and analyzed in the presence of 2.5% plasma (closed circles). The y-axis presents the ELISA signal in absorbance units, and the x-axis presents the concentration of kininogen in μg/mL.
The following day, the plate was washed and then blocked with 2% BSA (Protease/IgG free) in PBS buffer. Following a wash, samples containing cleaved HMWK in 0.1% BSA buffer in PBS with 0.05% Tween-20 (2-Chain HMWK assay buffer). Purified protein standards (e.g., 2-chain HMWK, intact HMWK or LMWK) were spiked into HMWK-deficient plasma and diluted 1:320 in 2-chain HMWK assay buffer. Following plate washing with PBST, a mixture of 2 mouse monoclonal antibodies (11H05 and 13B12) at 1 μg/mL in 2-chain HMWK assay buffer were added for 1 hour at room temperature. […] Signal was detected by the addition of 3,3′,5,5′-tetramethylbenzidine (TMB), an HRP substrate. […] Hydrolysis of a TMB substrate was detected using a microplate reader at 450 nm-630 nm (FIG. 3). […] Using these immunoassay conditions, specifically binding to cleaved HMWK was detected.

[2] = target: T2, intact high molecular weight kininogen (HMWK) (Homo sapiens, UniProt P01042 19-644); assay: optimized sandwich ELISA: M004-B04 capture, detection 11H05 + 13B12; value = C of the printed 4-P fit; the curve has no upper plateau in the range: last point about 0.95 at about 250 ng/mL, fitted line about 1.5 at 1000 ng/mL, so C and D are extrapolated
T2 construct: also called intact HMWK; 1-chain HMWK
T2 sequence: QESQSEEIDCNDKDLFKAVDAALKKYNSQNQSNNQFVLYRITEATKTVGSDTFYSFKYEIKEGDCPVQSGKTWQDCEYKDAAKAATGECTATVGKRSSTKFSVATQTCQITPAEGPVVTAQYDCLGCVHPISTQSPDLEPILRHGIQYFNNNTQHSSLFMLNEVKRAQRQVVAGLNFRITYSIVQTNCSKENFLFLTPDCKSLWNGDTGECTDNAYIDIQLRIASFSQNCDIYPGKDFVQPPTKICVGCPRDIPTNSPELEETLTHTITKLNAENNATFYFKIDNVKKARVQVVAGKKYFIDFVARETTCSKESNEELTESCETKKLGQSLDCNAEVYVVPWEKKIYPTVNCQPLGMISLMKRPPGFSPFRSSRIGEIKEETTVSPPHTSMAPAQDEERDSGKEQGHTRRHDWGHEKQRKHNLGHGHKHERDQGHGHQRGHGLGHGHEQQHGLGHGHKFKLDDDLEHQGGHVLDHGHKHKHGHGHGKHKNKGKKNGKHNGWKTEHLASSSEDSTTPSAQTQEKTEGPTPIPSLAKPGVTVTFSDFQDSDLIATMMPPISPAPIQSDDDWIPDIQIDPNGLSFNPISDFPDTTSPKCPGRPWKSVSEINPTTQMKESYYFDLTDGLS
Description: (§1) The following day, the plate was washed and then blocked with 2% BSA (Protease/IgG free) in PBS buffer. Following a wash, samples containing cleaved HMWK in 0.1% BSA buffer in PBS with 0.05% Tween-20 (2-Chain HMWK assay buffer). Purified protein standards (e.g., 2-chain HMWK, intact HMWK or LMWK) were spiked into HMWK-deficient plasma and diluted 1:320 in 2-chain HMWK assay buffer. Following plate washing with PBST, a mixture of 2 mouse monoclonal antibodies (11H05 and 13B12) at 1 μg/mL in 2-chain HMWK assay buffer were added for 1 hour at room temperature. Unbound detection antibodies were washed and a 1:2000 dilution of goat anti-mouse secondary antibody conjugated to horseradish peroxidase (HRP) was added. The assay containing the secondary antibody was incubated for 1 hour at room temperature, and unbound secondary antibody was removed by washing with 2-chain HMWK assay buffer. Signal was detected by the addition of 3,3′,5,5′-tetramethylbenzidine (TMB), an HRP substrate. The reaction was stopped with phosphoric acid. Hydrolysis of a TMB substrate was detected using a microplate reader at 450 nm-630 nm (FIG. 3). […] Using these immunoassay conditions, specifically binding to cleaved HMWK was detected.

[3] = target: T1, cleaved high molecular weight kininogen …; assay: ELISA on coated M004-B04, 2-chain HMWK titrated after preincubation of the plate with GCP28 peptide at 250 µg/mL; value = C of the printed 4-P fit; triangles, curve on the control's (the callout box on the graph names this curve HKH20: see recheck)
Description: as §1, with “Following” for “The following day, the plate was washed and then blocked with 2% BSA (Protease/IgG free) in PBS buffer. Following a wash, samples containing cleaved HMWK in 0.1% BSA buffer in PBS with 0.05% Tween-20 (2-Chain HMWK assay buffer). Purified protein standards (e.g., 2-chain HMWK, intact HMWK or LMWK) were spiked into HMWK-deficient plasma and diluted 1:320 in 2-chain HMWK assay buffer. Following”
(§2) To perform the assay, the kininogen peptides were diluted to 250 μg/mL and allowed to preincubate on assay plate. Then, purified 2-chain HMWK in deficient human plasma was diluted 160 and then added to plate.

[4] = target: T1, cleaved high molecular weight kininogen …; assay: ELISA on coated M004-B04, 2-chain HMWK titrated after preincubation of the plate with competitor HKH20 peptide at 250 µg/mL; value = C of the printed 4-P fit; squares, right-shifted curve (the callout box on the graph names this curve GCP28: see recheck)
Description: as §1, with “Following” for “The following day, the plate was washed and then blocked with 2% BSA (Protease/IgG free) in PBS buffer. Following a wash, samples containing cleaved HMWK in 0.1% BSA buffer in PBS with 0.05% Tween-20 (2-Chain HMWK assay buffer). Purified protein standards (e.g., 2-chain HMWK, intact HMWK or LMWK) were spiked into HMWK-deficient plasma and diluted 1:320 in 2-chain HMWK assay buffer. Following”
as §2

- EC50 [1]: 226 µg/mL
- EC50 [2]: 0.355 µg/mL
- EC50 [3]: 0.00941 µg/mL
- EC50 [4]: 0.0375 µg/mL
B1: 559B-M0004-B04 (Fab, V domains shown)
VH: EVQLLESGGGLVQPGGSLRLSCAASGFTFSFYVMVWVRQAPGKGLEWVSGISPSGGNTAYADSVKGRFTISRDNSKNTLYLQMNSLRAEDTAVYYCARKLFYYDDTKGYFDFWGQGTLVTVSS
VL: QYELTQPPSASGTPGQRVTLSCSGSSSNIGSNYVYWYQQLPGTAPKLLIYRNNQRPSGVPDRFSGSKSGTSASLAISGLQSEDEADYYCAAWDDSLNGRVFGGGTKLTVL
notes: also called M004-B04
